Data published in doi:10.1101/2022.10.09.511488 (bioRxiv, 2022).

Experiments:
[1] = target: Huc protomer (HucSL heterodimer) (Mycobacterium smegmatis mc2155); assay: cryo-EM structure
[2] = target: the molecule itself; assay: cryo-EM structure

Row | Molecule | stoichiometry N [1] | stoichiometry N [2]
1 | Huc protomer (HucSL heterodimer) (complex) | 2 | 
2 | HucM (MSMEG_2261) (natural protein) MASNGHSAGQNAIDELPDISPVDGIRRRLDDPQVAEALNSLLDHADLLAVLVKGLDGFVRRGDDIANNLTSAIGELKALNAADTPIPALAALKDVDLAGLANSLATLSGGLVKATPALNAVLDSLTDQRGAEVLSALGDALVAARTSAPPAPRGVRGMWKTLRAAAKDPDVGRGVSYLIEVARVFGSKV |  | 4
